In PMC12090219, “Reversible Substrate-Specific Photocontrol of the Chemotherapeutic Asparaginase(-Glutaminase) from Escherichia coli” (ACS Catalysis, 2025):

Columns and labels:
[1] = biological target: T1, wild-type Escherichia coli type II asparaginase (E. coli), P00805; experiment: SEC-MALS; analytical size-exclusion chromatography with static light scattering detection; 40 uM EcAII on S200 10/300 GL in 50 mM Tris/HCl pH 7.0, 100 mM NaCl; detection at 280 and 334 nm; details: remark: other sources report otherwise
T1 chain: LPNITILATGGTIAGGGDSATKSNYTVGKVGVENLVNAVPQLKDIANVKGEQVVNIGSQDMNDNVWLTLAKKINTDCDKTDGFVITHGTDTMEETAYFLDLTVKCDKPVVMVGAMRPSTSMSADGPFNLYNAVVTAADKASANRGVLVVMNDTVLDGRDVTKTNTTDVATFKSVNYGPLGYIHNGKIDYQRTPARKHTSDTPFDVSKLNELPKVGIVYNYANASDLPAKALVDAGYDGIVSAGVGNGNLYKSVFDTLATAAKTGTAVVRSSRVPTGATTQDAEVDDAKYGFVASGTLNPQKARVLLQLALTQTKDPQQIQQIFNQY

[2] = biological target: the molecule itself; experiment: as above

B1: wild-type Escherichia coli type II asparaginase, P00805 23-348 (enzyme)
chain: LPNITILATGGTIAGGGDSATKSNYTVGKVGVENLVNAVPQLKDIANVKGEQVVNIGSQDMNDNVWLTLAKKINTDCDKTDGFVITHGTDTMEETAYFLDLTVKCDKPVVMVGAMRPSTSMSADGPFNLYNAVVTAADKASANRGVLVVMNDTVLDGRDVTKTNTTDVATFKSVNYGPLGYIHNGKIDYQRTPARKHTSDTPFDVSKLNELPKVGIVYNYANASDLPAKALVDAGYDGIVSAGVGNGNLYKSVFDTLATAAKTGTAVVRSSRVPTGATTQDAEVDDAKYGFVASGTLNPQKARVLLQLALTQTKDPQQIQQIFNQY
stoichiometry N [1]: 4

B2: EcAII-S19AzoF (enzyme, E. coli)
chain: LPNITILATGGTIAGGGDFATKSNYTVGKVGVENLVNAVPQLKDIANVKGEQVVNIGSQDMNDNVWLTLAKKINTDCDKTDGFVITHGTDTMEETAYFLDLTVKCDKPVVMVGAMRPSTSMSADGPFNLYNAVVTAADKASANRGVLVVMNDTVLDGRDVTKTNTTDVATFKSVNYGPLGYIHNGKIDYQRTPARKHTSDTPFDVSKLNELPKVGIVYNYANASDLPAKALVDAGYDGIVSAGVGNGNLYKSVFDTLATAAKTGTAVVRSSRVPTGATTQDAEVDDAKYGFVASGTLNPQKARVLLQLALTQTKDPQQIQQIFNQY
modifications: phenylalanine-4'-azobenzene (AzoF) at position 19
notes: type II L-asparaginase (EcAII) from E. coli, gene ansB, UniProt P00805, with the unnatural amino acid AzoF in place of S19; The new residue is the unnatural amino acid phenylalanine-4'-azobenzene; the as-isolated state is ~100% E; also called EcAII with phenylalanine-4'-azobenzene at position S19
stoichiometry N [2]: 4

B3: EcAII-T21AzoF (enzyme, E. coli)
chain: LPNITILATGGTIAGGGDSAFKSNYTVGKVGVENLVNAVPQLKDIANVKGEQVVNIGSQDMNDNVWLTLAKKINTDCDKTDGFVITHGTDTMEETAYFLDLTVKCDKPVVMVGAMRPSTSMSADGPFNLYNAVVTAADKASANRGVLVVMNDTVLDGRDVTKTNTTDVATFKSVNYGPLGYIHNGKIDYQRTPARKHTSDTPFDVSKLNELPKVGIVYNYANASDLPAKALVDAGYDGIVSAGVGNGNLYKSVFDTLATAAKTGTAVVRSSRVPTGATTQDAEVDDAKYGFVASGTLNPQKARVLLQLALTQTKDPQQIQQIFNQY
modifications: phenylalanine-4'-azobenzene (AzoF) at position 21
notes: type II L-asparaginase (EcAII) from E. coli, gene ansB, UniProt P00805, with the unnatural amino acid AzoF in place of T21; The new residue is the unnatural amino acid phenylalanine-4'-azobenzene; the as-isolated state is ~100% E; also called EcAII with phenylalanine-4'-azobenzene at position T21
stoichiometry N [2]: 4
